Assay results: patent US20110207628A1 (UNIVERSITY OF MIAMI, published 2011)

Biological target: T1, GST-tubby-F (GST fused to full-length mouse tubby) (Schistosoma japonicum; mouse, UniProt P50586 1-505)
T1 construct: mature; Expressed in E. coli BL21(DE3) from pGEX-2T; not shown: glutathione S-transferase of pGEX-2T (Schistosoma japonicum)
T1 sequence (looked up): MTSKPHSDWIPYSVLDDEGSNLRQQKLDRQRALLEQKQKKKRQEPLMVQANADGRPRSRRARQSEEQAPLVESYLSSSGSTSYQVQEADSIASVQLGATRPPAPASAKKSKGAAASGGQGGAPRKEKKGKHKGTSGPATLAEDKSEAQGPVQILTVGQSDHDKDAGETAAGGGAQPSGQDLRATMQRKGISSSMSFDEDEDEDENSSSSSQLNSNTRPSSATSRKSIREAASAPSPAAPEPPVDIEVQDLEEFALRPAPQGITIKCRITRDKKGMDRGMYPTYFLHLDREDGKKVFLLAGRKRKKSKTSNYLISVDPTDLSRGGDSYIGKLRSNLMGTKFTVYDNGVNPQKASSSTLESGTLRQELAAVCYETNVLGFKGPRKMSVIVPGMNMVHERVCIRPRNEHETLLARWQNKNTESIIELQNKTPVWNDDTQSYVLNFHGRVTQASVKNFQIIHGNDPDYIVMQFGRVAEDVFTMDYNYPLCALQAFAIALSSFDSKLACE
Experiment: GST pull-down: GST-tubby with lysate of cells expressing the FLAG-tagged protein, glutathione resin, Western blot with anti-FLAG mAb

binding result: no binding
B1: FLAG-tagged Tulp3 (full-length mouse Tulp3 with N-terminal FLAG tag) (other)
chain: DYKDDDDKMEAARCAPGPRGDSAFDDETLRLRQLKLDNQRALLEKKQRKKRLEPLMVQPNPEARLRRLKPRGSEEHTPLVDPQMPRSDVILHGIDGPAAFLKPEAQDLESKPQVLSVGSPAPEEGTEGSADGESPEETAPKPDLQEILQKHGILSSVNYDEEPDKEEDEGGNLSSPSARSEESAAASQKAASETGASGVTAQQGDAQLGEVENLEDFAYSPAPRGVTVKCKVTRDKKGMDRGLFPTYYMHLEREENRKIFLLAGRKRKKSKTSNYLVSTDPTDLSREGESYIGKLRSNLMGTKFTVYDHGVNPVKAQGLVEKAHTRQELAAICYETNVLGFKGPRKMSVIIPGMNMNHERIPFRPRNEHESLLSKWQNKSMENLIELHNKAPVWNDDTQSYVLNFHGRVTQASVKNFQIVHGNDPDYIVMQFGRVADDVFTLDYNYPLCALQAFAIGLSSFDSKLACE
notes: mature; Expressed from pcDNA3 in Neuro-2a cells; used as cell lysate or on membrane vesicles
